Positions count from the first letter of the chain named. Names may count otherwise.

T1: human RXFP1 receptor (human, UniProt Q9HBX9 1-757)
T1 sequence: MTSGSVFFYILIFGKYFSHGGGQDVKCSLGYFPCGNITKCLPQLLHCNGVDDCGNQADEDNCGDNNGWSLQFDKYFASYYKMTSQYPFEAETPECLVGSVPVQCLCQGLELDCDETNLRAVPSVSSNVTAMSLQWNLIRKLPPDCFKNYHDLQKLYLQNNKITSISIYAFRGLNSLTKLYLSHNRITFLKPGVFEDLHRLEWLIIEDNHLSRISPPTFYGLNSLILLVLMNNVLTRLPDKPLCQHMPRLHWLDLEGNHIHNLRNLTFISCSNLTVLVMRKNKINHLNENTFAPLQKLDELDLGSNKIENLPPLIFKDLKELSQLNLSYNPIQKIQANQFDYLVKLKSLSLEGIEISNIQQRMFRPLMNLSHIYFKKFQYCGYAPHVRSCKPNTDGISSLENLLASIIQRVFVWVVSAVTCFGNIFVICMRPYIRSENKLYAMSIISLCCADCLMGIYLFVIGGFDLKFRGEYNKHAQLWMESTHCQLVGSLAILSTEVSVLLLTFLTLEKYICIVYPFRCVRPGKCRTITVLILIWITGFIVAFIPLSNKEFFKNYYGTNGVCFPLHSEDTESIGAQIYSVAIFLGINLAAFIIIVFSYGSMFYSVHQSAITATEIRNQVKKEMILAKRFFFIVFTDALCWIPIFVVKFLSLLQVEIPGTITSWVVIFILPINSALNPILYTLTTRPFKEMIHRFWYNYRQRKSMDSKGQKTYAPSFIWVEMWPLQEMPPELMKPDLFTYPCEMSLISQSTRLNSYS

B1: RLN Analog 5 (other)
chain: SWMEEVIKLCGRELVRAQIAICGMSTWSGGGSGGSGGGQLYSALANKCCHVGCTKRSLARFCGGGGQGGGGQGGGGQGGGGQGGGGQEVQLLESGGGLVQPGGSLRLSCAASGRYIDETAVAWFRQAPGKEREFVAGIGGGVDITYYADSVKGRFTISRDNSKNTLYLQMNSLRPEDTAVYYCAARPGRPLITSKVADLYPYWGQGTLVTVSSPP
notes: Single-chain fusion: RLN2 B chain (desB1) - L2 - RLN2 A chain - (G4Q)5 L1 - VHH (C-terminal)
B2: RLN Analog 9 (other)
chain: B1 chain with E131G
notes: as for B1
B3: RLN Analog 6 (other)
chain: SWMEEVIKLCGRELVRAQIAICGMSTWSGGGSGGSGGGQLYSALANKCCHVGCTKRSLARFCPGPQPGPQPGPQPGPQPGPQPGPQPGPQPGPQEVQLLESGGGLVQPGGSLRLSCAASGRYIDETAVAWFRQAPGKEREFVAGIGGGVDITYYADSVKGRFTISRDNSKNTLYLQMNSLRPEDTAVYYCAARPGRPLITSKVADLYPYWGQGTLVTVSSPP
notes: Single-chain fusion: RLN2 B chain (desB1) - L2 - RLN2 A chain - PGPQ-repeat L1 - VHH (C-terminal)
B4: RLN Analog 10 (other)
chain: B3 chain with E138G
notes: Single-chain fusion: RLN2 B chain (desB1) - L2 - RLN2 A chain - (PGPQ)8 L1 - VHH (C-terminal)

For one assay, the target named is T1, human RXFP1 receptor. Description: cell-based or functional assay.
As to B1, the “hRXFP1 EC50 nM GeoMean (cAMP CRE luciferase reporter assay, CHO cells expressing human RXFP1)” value (from here on “hRXFP1 EC50 nM GeoMean”) worked out at 8.1 nM.

For B2, the “hRXFP1 EC50 nM GeoMean” value came to 5.2 nM.

For the molecule B3, the “hRXFP1 EC50 nM GeoMean” value turned out to be 15 nM.

Regarding B4, the “hRXFP1 EC50 nM GeoMean” value amounted to 14 nM.

The target of the next assay is human RXFP2 receptor (human, UniProt Q8WXD0 1-754). In words: cell-based or functional assay.
As to B1, the “hRXFP2 EC50 nM GeoMean (cAMP CRE luciferase reporter assay, CHO cells expressing human RXFP2)” value (“hRXFP2 EC50 nM GeoMean” for short) was determined as 98 nM.

On to B2, for which the “hRXFP2 EC50 nM GeoMean” value came to 97 nM.

B3: the “hRXFP2 EC50 nM GeoMean” value was 39 nM.

With B4, the “hRXFP2 EC50 nM GeoMean” value came to 32 nM.

The next assay addresses T2, rabbit serum albumin (rabbit, UniProt P49065 25-608).
T2 construct: Bought protein, immobilized on a CM5 chip by amine coupling; also called Rabbit SA
Description: SPR (Biacore 8K), albumin immobilized on CM5 chip, 25 C. Here is the method:
(§1) The immobilization of the serum albumin to a Series S Sensor Chip CM5 surface is performed according to the manufacturer's instructions (Amine Coupling Kit BR-1000-50). Briefly, carboxyl groups on the sensor chip surfaces (flow cell 1 and 2) are activated by injecting 70 μL of a mixture containing 75 mg/mL EDC and 11.5 mg/mL NHS at 10 μL/min. Human, cynomolgus monkey, mouse, rat, pig, dog, cow and rabbit serum albumin are diluted in 10 mM sodium acetate pH 4.0 (BR-1003-49) at […] and then injected over the activated chip surfaces (flow cell 2, channel 1 to 8) at 10 μL/min for 180 sec (human, mouse, rat, pig and cow serum albumin are obtained from Sigma Aldrich (St. Louis, MO); cynomolgus monkey serum albumin is obtained from Hölzel Diagnostika (Cologne, Germany); dog serum albumin is obtained from Molecular Innovations (Novi, MI); and rabbit serum albumin is obtained from Fitzgerald Industries Intl. (Acton, MA). The various serum albumins are covalently immobilized through free amines onto a carboxymethyl dextran-coated sensor chip CM5 targeting a surface density of about 100 (62-145) RU. Excess reactive groups on the surfaces (flow cell 1 and 2) are deactivated by injecting 70 μL of 1 M ETA HCl—NaOH pH 8.5.
(§2) 150 μl of sample is individually injecting sequentially across the immobilized serum albumins on the chip's surface and dissociating for 600 sec at 50 μL/min flow rate at 25° C. The surface is regenerated by injecting 10 mM glycine-HCl pH 1.5 (BR-1003-54) at 50 μL/min for 100 sec. The resulting sensorgrams are analyzed using Biacore 8K Insight Evaluation Software (version 2.0.15.12933) 1:1 binding kinetics model fitting to calculate the binding kinetic parameter association rate (ka), dissociation rate (kd), and equilibrium dissociation constant (KD).
A general note: Surface plasmon resonance follows binding to a sensor surface in real time, without labels.
In the case of B1, the binding result is on record as “no binding (tested: 1000 nM (highest concentration tested))”.

With B2, the binding result is reported as “no binding (tested: 1000 nM (highest concentration tested))”.

In the case of B3, the binding result is “no binding (tested: 1000 nM (highest concentration tested))”.

Regarding B4, the binding result is “no binding (tested: 1000 nM (highest concentration tested))”.

The target of another assay is T3, cow serum albumin (cow, UniProt P02769 25-607).
T3 construct: Bought protein, immobilized on a CM5 chip by amine coupling; also called Cow SA
In words: SPR (Biacore 8K), albumin immobilized on CM5 chip, 25 C, steady state. Here is the method: as §1
150 μl of sample is individually injecting sequentially across the immobilized serum albumins on the chip's surface and dissociating for 600 sec at 50 μL/min flow rate at 25° C. The surface is regenerated by injecting 10 mM glycine-HCl pH 1.5 (BR-1003-54) at 50 μL/min for 100 sec. The resulting sensorgrams are analyzed using Biacore 8K Insight Evaluation Software ([…]).
As usually defined, the Kd is the free concentration of one partner at which half of the binding sites on the other are occupied at equilibrium, for simple one-to-one binding. In turn, B1 returned a Kd of 120 nM.

For the molecule B2, the Kd stood at 84 nM.

The molecule B3 gave a Kd of 130 nM.

Molecule B4 displayed a Kd of 100 nM.

Another assay has as its target T4, human serum albumin (human, UniProt P02768 25-609).
T4 construct: Bought protein, immobilized on a CM5 chip by amine coupling; also called Human SA
Description: SPR (Biacore 8K), albumin immobilized on CM5 chip, 25 C, 1:1 kinetic fit. The protocol: as §1, §2
As usually defined, the koff is the rate constant with which the complex falls apart. What is called kon is a measure of how fast the partners come together. B1 gave a Kd of 0.45 nM, a koff of 0.00026 s⁻¹ and a kon of 580000 M⁻¹ s⁻¹.

As for B2, the affinity, expressed as Kd, was 0.19 nM; the koff came to 0.00018 s⁻¹; the kon was 950000 M⁻¹ s⁻¹.

In turn, B3 gave a Kd of 0.51 nM, a koff of 0.00024 s⁻¹ and a kon of 470000 M⁻¹ s⁻¹.

On to B4, for which the Kd amounted to 0.37 nM, the koff was 0.0002 s⁻¹ and the kon worked out at 550000 M⁻¹ s⁻¹.

The next assay has as its target T5, cynomolgus monkey serum albumin (cynomolgus monkey, UniProt A2V9Z4 25-608).
T5 construct: Bought protein, immobilized on a CM5 chip by amine coupling; also called Cyno SA
The assay is described as above. Here is the method:
as §1, §2
As for B1, binding was put at a Kd of 1.8 nM, the koff amounted to 0.0015 s⁻¹ and the kon was determined as 820000 M⁻¹ s⁻¹.

Take B2: binding was characterised by a dissociation constant (Kd) of 0.86 nM, the koff was determined as 0.00094 s⁻¹ and the kon came out at 1.1e+06 M⁻¹ s⁻¹.

B3: the Kd stood at 2.3 nM, the koff was determined as 0.001 s⁻¹ and the kon was determined as 430000 M⁻¹ s⁻¹.

In the case of B4, the Kd is 1.5 nM, the koff was found to be 0.00077 s⁻¹ and the kon was 510000 M⁻¹ s⁻¹.

The next assay deals with T6, mouse serum albumin (mouse, UniProt P07724 25-608).
T6 construct: Bought protein, immobilized on a CM5 chip by amine coupling; also called Mouse SA
The description is as above. The protocol:
as §1, §2
For the molecule B1, the Kd came to 14 nM, the koff turned out to be 0.0083 s⁻¹ and the kon was found to be 590000 M⁻¹ s⁻¹.

Regarding B2, the Kd turned out to be 9.5 nM, the koff is 0.011 s⁻¹ and the kon was found to be 1.2e+06 M⁻¹ s⁻¹.

On to B3, for which the Kd is 12 nM, the koff stood at 0.0076 s⁻¹ and the kon was determined as 630000 M⁻¹ s⁻¹.

The molecule B4 came in with a Kd of 9.7 nM, a koff of 0.0072 s⁻¹ and a kon of 740000 M⁻¹ s⁻¹.

In the next assay the target is T7, rat serum albumin (rat, UniProt P02770 25-608).
T7 construct: Bought protein, immobilized on a CM5 chip by amine coupling; also called Rat SA
The assay is described as above. The protocol:
as §1, §2
B1 showed a Kd of 10 nM, a koff of 0.0072 s⁻¹ and a kon of 700000 M⁻¹ s⁻¹.

The molecule B2 came in with a Kd of 8.2 nM, a koff of 0.0075 s⁻¹ and a kon of 910000 M⁻¹ s⁻¹.

Molecule B3 gave a Kd of 9.7 nM, a koff of 0.0048 s⁻¹ and an on-rate (kon) of 490000 M⁻¹ s⁻¹.

On to B4, for which the Kd was found to be 7.8 nM, the koff worked out at 0.0049 s⁻¹ and the kon was 630000 M⁻¹ s⁻¹.

The next assay concerns the target T8, pig serum albumin (pig, UniProt P08835 25-607).
T8 construct: Bought protein, immobilized on a CM5 chip by amine coupling; also called Pig SA
Described as above. Here is the method:
as §1, §2
For the molecule B1, the Kd stood at 23 nM, the koff amounted to 0.013 s⁻¹ and the kon stood at 580000 M⁻¹ s⁻¹.

Regarding B2, the dissociation constant Kd came out at 14 nM, the off-rate (koff) amounted to 0.012 s⁻¹ and the kon worked out at 870000 M⁻¹ s⁻¹.

Regarding B3, binding was characterised by a dissociation constant (Kd) of 24 nM, the koff is 0.0099 s⁻¹ and the kon came to 410000 M⁻¹ s⁻¹.

B4 registered a Kd of 20 nM, a koff of 0.0096 s⁻¹ and a kon of 490000 M⁻¹ s⁻¹.

A further assay has as its target T9, dog serum albumin (dog, UniProt P49822 25-608).
T9 construct: Bought protein, immobilized on a CM5 chip by amine coupling; also called Dog SA
Described as above. Here is the method: as §1, §2
B1 gave a Kd of 4.7 nM, a koff of 0.0034 s⁻¹ and a kon of 710000 M⁻¹ s⁻¹.

Take B2: the Kd stood at 3.8 nM, the koff was 0.0036 s⁻¹ and the kon stood at 950000 M⁻¹ s⁻¹.

B3 had a Kd of 4.1 nM, a koff of 0.002 s⁻¹ and a kon of 480000 M⁻¹ s⁻¹.

The molecule B4 yielded a Kd of 3.4 nM, a koff of 0.0021 s⁻¹ and a kon of 630000 M⁻¹ s⁻¹.

The values are drawn from patent US20260125446A1 (Eli Lilly, published 2026).
